The values below are quoted from earlier work in article PMC4191058.

The data set deals with NS1 (Influenza A virus) (UniProt Q8QPI8).

For orientation: Kd means the constant that tells how readily two partners part at equilibrium. Turning to NS1 (from UniProt Q8QPI8), the Kd is 90 µM.
